*1 amine or outer side, *2 acyl side, *3 side chain or, on linkers, in order; H or OH if unused. Where no end group is shown, it is not given here. Side-chain parts run from the residue outwards. The star is where a group is joined. C16 diacid = O=C(O)CCCCCCCCCCCCCCC(=O)*; γGlu = O=C(O)[C@H](CCC(=O)[*:2])N[*:1]; AEEA = NCCOCCOCC(=O)O
T1: human GIP receptor (human, UniProt P48546 22-466)
T1 sequence (looked up): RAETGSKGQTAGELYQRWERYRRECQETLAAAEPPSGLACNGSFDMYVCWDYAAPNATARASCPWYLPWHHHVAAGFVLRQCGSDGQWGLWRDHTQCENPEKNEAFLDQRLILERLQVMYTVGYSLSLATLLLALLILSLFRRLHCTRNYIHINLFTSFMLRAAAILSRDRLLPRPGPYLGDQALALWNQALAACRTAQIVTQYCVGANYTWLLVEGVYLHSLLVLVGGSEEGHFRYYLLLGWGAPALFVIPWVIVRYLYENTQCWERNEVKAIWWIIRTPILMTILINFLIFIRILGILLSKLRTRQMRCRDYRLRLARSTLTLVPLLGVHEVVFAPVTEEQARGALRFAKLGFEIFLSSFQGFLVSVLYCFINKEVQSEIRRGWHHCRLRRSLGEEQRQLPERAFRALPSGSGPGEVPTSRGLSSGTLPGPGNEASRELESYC

B1: AT510 (peptide)
peptide: SGTFISDYSIAMDRIKQQDFVNWLLAQR
HELM: PEPTIDE1{S.G.T.F.I.S.D.Y.S.I.A.M.D.R.I.K.Q.Q.D.F.V.N.W.L.L.A.Q.R.[am]}|PEPTIDE2{[O=C(O)CCCCCCCCCCCCCCC(=O)[*:2]].[gGlu].[O=C(COCCOCCN[*:1])[*:2]]}$PEPTIDE1,PEPTIDE2,16:R3-3:R2$$$V2.0; N-terminus assumed
SMILES: CC[C@H](C)[C@H](NC(=O)[C@H](CO)NC(=O)[C@H](Cc1ccc(O)cc1)NC(=O)[C@H](CC(=O)O)NC(=O)[C@H](CO)NC(=O)[C@@H](NC(=O)[C@H](Cc1ccccc1)NC(=O)[C@@H](NC(=O)CNC(=O)[C@@H](N)CO)[C@@H](C)O)[C@@H](C)CC)C(=O)N[C@@H](C)C(=O)N[C@@H](CCSC)C(=O)N[C@@H](CC(=O)O)C(=O)N[C@@H](CCCNC(=N)N)C(=O)N[C@H](C(=O)N[C@@H](CCCCNC(=O)COCCOCCNC(=O)CC[C@H](NC(=O)CCCCCCCCCCCCCCC(=O)O)C(=O)O)C(=O)N[C@@H](CCC(N)=O)C(=O)N[C@@H](CCC(N)=O)C(=O)N[C@@H](CC(=O)O)C(=O)N[C@@H](Cc1ccccc1)C(=O)N[C@H](C(=O)N[C@@H](CC(N)=O)C(=O)N[C@@H](Cc1c[nH]c2ccccc12)C(=O)N[C@@H](CC(C)C)C(=O)N[C@@H](CC(C)C)C(=O)N[C@@H](C)C(=O)N[C@@H](CCC(N)=O)C(=O)N[C@@H](CCCNC(=N)N)C(N)=O)C(C)C)[C@@H](C)CC
B2: AT508 (peptide)
peptide: GGTFISDYSIAMDRIKQQDFVNWLLAQR
HELM: PEPTIDE1{G.G.T.F.I.S.D.Y.S.I.A.M.D.R.I.K.Q.Q.D.F.V.N.W.L.L.A.Q.R.[am]}|PEPTIDE2{[O=C(O)CCCCCCCCCCCCCCC(=O)[*:2]].[gGlu].[O=C(COCCOCCN[*:1])[*:2]]}$PEPTIDE1,PEPTIDE2,16:R3-3:R2$$$V2.0; N-terminus assumed
SMILES: CC[C@H](C)[C@H](NC(=O)[C@H](CO)NC(=O)[C@H](Cc1ccc(O)cc1)NC(=O)[C@H](CC(=O)O)NC(=O)[C@H](CO)NC(=O)[C@@H](NC(=O)[C@H](Cc1ccccc1)NC(=O)[C@@H](NC(=O)CNC(=O)CN)[C@@H](C)O)[C@@H](C)CC)C(=O)N[C@@H](C)C(=O)N[C@@H](CCSC)C(=O)N[C@@H](CC(=O)O)C(=O)N[C@@H](CCCNC(=N)N)C(=O)N[C@H](C(=O)N[C@@H](CCCCNC(=O)COCCOCCNC(=O)CC[C@H](NC(=O)CCCCCCCCCCCCCCC(=O)O)C(=O)O)C(=O)N[C@@H](CCC(N)=O)C(=O)N[C@@H](CCC(N)=O)C(=O)N[C@@H](CC(=O)O)C(=O)N[C@@H](Cc1ccccc1)C(=O)N[C@H](C(=O)N[C@@H](CC(N)=O)C(=O)N[C@@H](Cc1c[nH]c2ccccc12)C(=O)N[C@@H](CC(C)C)C(=O)N[C@@H](CC(C)C)C(=O)N[C@@H](C)C(=O)N[C@@H](CCC(N)=O)C(=O)N[C@@H](CCCNC(=N)N)C(N)=O)C(C)C)[C@@H](C)CC
B3: AT512 (peptide)
peptide: PGTFISDYSIAMDRIKQQDFVNWLLAQR
HELM: PEPTIDE1{P.G.T.F.I.S.D.Y.S.I.A.M.D.R.I.K.Q.Q.D.F.V.N.W.L.L.A.Q.R.[am]}|PEPTIDE2{[O=C(O)CCCCCCCCCCCCCCC(=O)[*:2]].[gGlu].[O=C(COCCOCCN[*:1])[*:2]]}$PEPTIDE1,PEPTIDE2,16:R3-3:R2$$$V2.0; N-terminus assumed
SMILES: CC[C@H](C)[C@H](NC(=O)[C@H](CO)NC(=O)[C@H](Cc1ccc(O)cc1)NC(=O)[C@H](CC(=O)O)NC(=O)[C@H](CO)NC(=O)[C@@H](NC(=O)[C@H](Cc1ccccc1)NC(=O)[C@@H](NC(=O)CNC(=O)[C@@H]1CCCN1)[C@@H](C)O)[C@@H](C)CC)C(=O)N[C@@H](C)C(=O)N[C@@H](CCSC)C(=O)N[C@@H](CC(=O)O)C(=O)N[C@@H](CCCNC(=N)N)C(=O)N[C@H](C(=O)N[C@@H](CCCCNC(=O)COCCOCCNC(=O)CC[C@H](NC(=O)CCCCCCCCCCCCCCC(=O)O)C(=O)O)C(=O)N[C@@H](CCC(N)=O)C(=O)N[C@@H](CCC(N)=O)C(=O)N[C@@H](CC(=O)O)C(=O)N[C@@H](Cc1ccccc1)C(=O)N[C@H](C(=O)N[C@@H](CC(N)=O)C(=O)N[C@@H](Cc1c[nH]c2ccccc12)C(=O)N[C@@H](CC(C)C)C(=O)N[C@@H](CC(C)C)C(=O)N[C@@H](C)C(=O)N[C@@H](CCC(N)=O)C(=O)N[C@@H](CCCNC(=N)N)C(N)=O)C(C)C)[C@@H](C)CC
B4: AT516 (peptide)
peptide: SGTFISDYSIAMDRIK([AEEA-AEEA-γGlu-C16 diacid])QQDFVNWLLAQR-NH2
modifications: N-terminus assumed
SMILES: CC[C@H](C)[C@H](NC(=O)[C@H](CO)NC(=O)[C@H](Cc1ccc(O)cc1)NC(=O)[C@H](CC(=O)O)NC(=O)[C@H](CO)NC(=O)[C@@H](NC(=O)[C@H](Cc1ccccc1)NC(=O)[C@@H](NC(=O)CNC(=O)[C@@H](N)CO)[C@@H](C)O)[C@@H](C)CC)C(=O)N[C@@H](C)C(=O)N[C@@H](CCSC)C(=O)N[C@@H](CC(=O)O)C(=O)N[C@@H](CCCNC(=N)N)C(=O)N[C@H](C(=O)N[C@@H](CCCCNC(=O)COCCOCCNC(=O)COCCOCCNC(=O)CC[C@H](NC(=O)CCCCCCCCCCCCCCC(=O)O)C(=O)O)C(=O)N[C@@H](CCC(N)=O)C(=O)N[C@@H](CCC(N)=O)C(=O)N[C@@H](CC(=O)O)C(=O)N[C@@H](Cc1ccccc1)C(=O)N[C@H](C(=O)N[C@@H](CC(N)=O)C(=O)N[C@@H](Cc1c[nH]c2ccccc12)C(=O)N[C@@H](CC(C)C)C(=O)N[C@@H](CC(C)C)C(=O)N[C@@H](C)C(=O)N[C@@H](CCC(N)=O)C(=O)N[C@@H](CCCNC(=N)N)C(N)=O)C(C)C)[C@@H](C)CC
B5: AT514 (peptide)
peptide: GGTFISDYSIAMDRIK([AEEA-AEEA-γGlu-C16 diacid])QQDFVNWLLAQR-NH2
modifications: N-terminus assumed
SMILES: CC[C@H](C)[C@H](NC(=O)[C@H](CO)NC(=O)[C@H](Cc1ccc(O)cc1)NC(=O)[C@H](CC(=O)O)NC(=O)[C@H](CO)NC(=O)[C@@H](NC(=O)[C@H](Cc1ccccc1)NC(=O)[C@@H](NC(=O)CNC(=O)CN)[C@@H](C)O)[C@@H](C)CC)C(=O)N[C@@H](C)C(=O)N[C@@H](CCSC)C(=O)N[C@@H](CC(=O)O)C(=O)N[C@@H](CCCNC(=N)N)C(=O)N[C@H](C(=O)N[C@@H](CCCCNC(=O)COCCOCCNC(=O)COCCOCCNC(=O)CC[C@H](NC(=O)CCCCCCCCCCCCCCC(=O)O)C(=O)O)C(=O)N[C@@H](CCC(N)=O)C(=O)N[C@@H](CCC(N)=O)C(=O)N[C@@H](CC(=O)O)C(=O)N[C@@H](Cc1ccccc1)C(=O)N[C@H](C(=O)N[C@@H](CC(N)=O)C(=O)N[C@@H](Cc1c[nH]c2ccccc12)C(=O)N[C@@H](CC(C)C)C(=O)N[C@@H](CC(C)C)C(=O)N[C@@H](C)C(=O)N[C@@H](CCC(N)=O)C(=O)N[C@@H](CCCNC(=N)N)C(N)=O)C(C)C)[C@@H](C)CC
B6: AT518 (peptide)
peptide: PGTFISDYSIAMDRIK([AEEA-AEEA-γGlu-C16 diacid])QQDFVNWLLAQR-NH2
modifications: N-terminus assumed
SMILES: CC[C@H](C)[C@H](NC(=O)[C@H](CO)NC(=O)[C@H](Cc1ccc(O)cc1)NC(=O)[C@H](CC(=O)O)NC(=O)[C@H](CO)NC(=O)[C@@H](NC(=O)[C@H](Cc1ccccc1)NC(=O)[C@@H](NC(=O)CNC(=O)[C@@H]1CCCN1)[C@@H](C)O)[C@@H](C)CC)C(=O)N[C@@H](C)C(=O)N[C@@H](CCSC)C(=O)N[C@@H](CC(=O)O)C(=O)N[C@@H](CCCNC(=N)N)C(=O)N[C@H](C(=O)N[C@@H](CCCCNC(=O)COCCOCCNC(=O)COCCOCCNC(=O)CC[C@H](NC(=O)CCCCCCCCCCCCCCC(=O)O)C(=O)O)C(=O)N[C@@H](CCC(N)=O)C(=O)N[C@@H](CCC(N)=O)C(=O)N[C@@H](CC(=O)O)C(=O)N[C@@H](Cc1ccccc1)C(=O)N[C@H](C(=O)N[C@@H](CC(N)=O)C(=O)N[C@@H](Cc1c[nH]c2ccccc12)C(=O)N[C@@H](CC(C)C)C(=O)N[C@@H](CC(C)C)C(=O)N[C@@H](C)C(=O)N[C@@H](CCC(N)=O)C(=O)N[C@@H](CCCNC(=N)N)C(N)=O)C(C)C)[C@@H](C)CC

Molecular target: T1, human GIP receptor
Assay: cell-based or functional assay

In order of rising “CisBio cAMP agonism % Efficacy” value:
1. B2  0%
2. B3  0%
3. B4  0%
4. B5  0%
5. B6  0%
6. B1  2%

In order of falling “CisBio cAMP antagonism % inhib” value:
1. B2  89%
2. B4  88%
3. B1  87%
4. B5  86%
5. B3  73%
6. B6  71%

In order of falling “CisBio cAMP antagonism IC50” value:
1. B2  92.6 nM
2. B6  85.8 nM
3. B3  79.4 nM
4. B1  58.4 nM
5. B5  31.6 nM
6. B4  27.1 nM

In order of rising “CisBio cAMP antagonism pIC50” value:
1. B2  7
2. B3  7.1
3. B6  7.1
4. B1  7.2
5. B5  7.5
6. B4  7.6

In order of falling “DiscoveRx cAMP antagonism % inhib” value:
1. B1  100%
2. B2  100%
3. B4  100%
4. B6  100%
5. B3  80%
6. B5  80%

In order of falling “DiscoveRx cAMP antagonism IC50” value:
1. B6  346 nM
2. B3  168 nM
3. B5  39 nM
4. B4  31 nM
5. B1  30 nM
6. B2  23 nM

In order of rising “DiscoveRx cAMP antagonism log IC50” value:
1. B2  -7.6 log M
2. B1  -7.5 log M
3. B4  -7.5 log M
4. B5  -7.4 log M
5. B3  -6.8 log M
6. B6  -6.5 log M

B6 was tested, and the “DiscoveRx cAMP agonism Emax” value was 5.

Source: patent US20220025010A1 (ANTAG THERAPEUTICS, published 2022)
